From patent US6429305 (ACADEMIA SINICA, dated 2002)

Target: growth hormone receptor on ZFL cells (zebrafish liver cell line) (zebrafish)
Experiment: cell-based or functional assay

| increase in cell proliferation relative to no growth hormone added (MTS-formazan conversion assay, ZFL cells) [%] | Binder |
| --- | --- |
| 58.3 | recombinant yellow grouper (Epinephelus awoara) growth hormone (ligand) MITDGQRLFSIAVSRVQHLHLLAQRLFSDFESSLQTEEQRQLNKIFLQDFCNSDYIISPIDKHETQRSSVLKLLSISYRLVESWEFPSRSLSGGSAPRNQIFPKLSELKTGILLLIRANQDGAELFPDSSALQLAPYGNYYQSLGADESLRRTYELLACFKKDMHKVETYLTVAKCRLSPEANCTLLEHHHHHH |
| 118 | recombinant ayu (Plecoglossus altivelis) growth hormone (ligand) MSENQRLFSIAVNRAQHLHLLAQKMFNDFEGNLSPDDRRQMNKIFLQDFCNSDSIISPVDKHETQKSSVQKLLHISFRLVESWEYPSQALSSSLSLSRFSEIPLKLTDLKLGIDTILRGTQDGLLSLEDNEAQQLPPYENYYQNLGGDDNIHRSYELLACFKKDMHKVETYLTVAKCRRSLEANCTLLEHHHHHH |
